These are literature values, as cited in article PMC6928821.

Where two headings read alike, the source gives them in different places.

Data set [1] concerns the target p300 (Homo sapiens) (UniProt Q09472).
Data set [2] addresses p300 Taz2 (Homo sapiens) (UniProt Q09472).
Data set [3] has the same target. This is another data set of the same source.

p53 TAD1 TAD1, sequence (P04637 13-37): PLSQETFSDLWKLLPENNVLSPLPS
p300 Taz2 (Homo sapiens), sequence (Q09472 1723-1836): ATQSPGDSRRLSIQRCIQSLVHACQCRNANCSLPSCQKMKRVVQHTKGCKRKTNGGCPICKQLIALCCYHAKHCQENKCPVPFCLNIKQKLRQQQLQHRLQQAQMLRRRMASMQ
p53 TAD1 1-39, sequence (P04637 1-39): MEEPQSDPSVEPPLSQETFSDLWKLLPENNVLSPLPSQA
p300 (Homo sapiens), sequence (Q09472 2-2414): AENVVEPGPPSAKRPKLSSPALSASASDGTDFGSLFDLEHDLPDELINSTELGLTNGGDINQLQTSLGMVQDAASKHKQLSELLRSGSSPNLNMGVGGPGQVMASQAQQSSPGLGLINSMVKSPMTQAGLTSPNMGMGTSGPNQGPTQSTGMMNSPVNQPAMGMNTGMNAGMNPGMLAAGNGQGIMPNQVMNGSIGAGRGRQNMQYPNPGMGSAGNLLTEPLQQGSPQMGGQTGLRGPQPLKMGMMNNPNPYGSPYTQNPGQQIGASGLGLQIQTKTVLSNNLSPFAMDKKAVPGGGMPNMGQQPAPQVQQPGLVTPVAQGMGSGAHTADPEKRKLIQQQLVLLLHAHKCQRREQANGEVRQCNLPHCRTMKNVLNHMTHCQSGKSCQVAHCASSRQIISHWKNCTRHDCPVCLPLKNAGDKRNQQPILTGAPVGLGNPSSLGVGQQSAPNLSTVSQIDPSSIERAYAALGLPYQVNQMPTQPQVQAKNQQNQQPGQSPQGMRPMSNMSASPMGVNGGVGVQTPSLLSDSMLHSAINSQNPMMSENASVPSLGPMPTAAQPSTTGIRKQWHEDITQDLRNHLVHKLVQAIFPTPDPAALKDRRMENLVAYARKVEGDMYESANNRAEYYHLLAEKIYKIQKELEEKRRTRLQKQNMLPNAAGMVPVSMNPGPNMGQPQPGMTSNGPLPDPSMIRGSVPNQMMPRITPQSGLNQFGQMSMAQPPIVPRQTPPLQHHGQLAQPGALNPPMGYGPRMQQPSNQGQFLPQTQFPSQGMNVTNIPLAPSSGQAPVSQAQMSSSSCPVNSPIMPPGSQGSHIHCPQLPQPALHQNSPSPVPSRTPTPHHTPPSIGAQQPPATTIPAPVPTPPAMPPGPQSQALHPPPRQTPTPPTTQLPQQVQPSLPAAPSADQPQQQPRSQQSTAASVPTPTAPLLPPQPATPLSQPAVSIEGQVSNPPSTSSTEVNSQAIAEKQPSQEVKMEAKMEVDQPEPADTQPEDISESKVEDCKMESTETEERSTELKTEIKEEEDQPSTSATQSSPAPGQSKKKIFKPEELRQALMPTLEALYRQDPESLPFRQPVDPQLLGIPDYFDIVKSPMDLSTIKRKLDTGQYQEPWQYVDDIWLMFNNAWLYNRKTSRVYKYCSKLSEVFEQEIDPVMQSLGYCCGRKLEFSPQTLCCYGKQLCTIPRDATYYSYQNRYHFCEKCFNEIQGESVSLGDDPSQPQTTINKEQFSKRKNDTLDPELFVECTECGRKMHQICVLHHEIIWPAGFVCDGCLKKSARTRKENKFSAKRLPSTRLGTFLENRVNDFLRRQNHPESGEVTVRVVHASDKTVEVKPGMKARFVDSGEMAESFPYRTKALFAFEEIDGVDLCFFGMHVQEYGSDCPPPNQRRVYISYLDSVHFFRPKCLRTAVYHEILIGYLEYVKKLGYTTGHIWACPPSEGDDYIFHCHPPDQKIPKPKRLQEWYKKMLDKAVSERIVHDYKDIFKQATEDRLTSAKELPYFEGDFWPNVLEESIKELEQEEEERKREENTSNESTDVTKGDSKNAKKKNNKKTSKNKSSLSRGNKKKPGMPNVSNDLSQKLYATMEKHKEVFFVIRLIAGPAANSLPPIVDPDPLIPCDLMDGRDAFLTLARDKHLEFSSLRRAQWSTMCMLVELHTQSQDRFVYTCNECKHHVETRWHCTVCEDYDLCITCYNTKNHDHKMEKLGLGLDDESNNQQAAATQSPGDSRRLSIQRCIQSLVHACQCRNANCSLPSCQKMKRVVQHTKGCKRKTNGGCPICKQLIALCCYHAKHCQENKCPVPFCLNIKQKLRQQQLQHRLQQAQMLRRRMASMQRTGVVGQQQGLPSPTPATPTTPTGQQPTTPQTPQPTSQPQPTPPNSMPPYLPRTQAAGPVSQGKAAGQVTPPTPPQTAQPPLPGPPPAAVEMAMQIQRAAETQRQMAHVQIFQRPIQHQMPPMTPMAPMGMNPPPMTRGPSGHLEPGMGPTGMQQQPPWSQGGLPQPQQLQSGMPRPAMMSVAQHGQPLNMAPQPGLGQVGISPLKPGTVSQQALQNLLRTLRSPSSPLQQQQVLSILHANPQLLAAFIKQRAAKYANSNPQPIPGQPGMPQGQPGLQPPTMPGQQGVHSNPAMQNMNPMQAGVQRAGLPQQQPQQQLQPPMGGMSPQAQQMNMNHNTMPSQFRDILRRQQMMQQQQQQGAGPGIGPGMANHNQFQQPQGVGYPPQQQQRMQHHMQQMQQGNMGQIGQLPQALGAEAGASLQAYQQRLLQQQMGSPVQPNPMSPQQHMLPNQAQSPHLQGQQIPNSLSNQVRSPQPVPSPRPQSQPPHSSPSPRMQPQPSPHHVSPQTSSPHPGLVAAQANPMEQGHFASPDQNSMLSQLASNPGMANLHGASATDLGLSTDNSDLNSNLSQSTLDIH

Turning to p53 TAD1 1-39 (from UniProt P04637), in data set [1], the Kd is 3 µM. In the case of p53 TAD1 TAD1 (from UniProt P04637), the dissociation constant Kd in data set [2] is 0.2 µM; in data set [3], 3 µM.
